Patent US20100144645A1, “COMPOSITIONS AND METHODS FOR ENHANCING […] POTENCY OF […]-COMPOUNDS, A[…] ADVERSE SIDE EFFECTS, AND […] ABUSE” (SHIRE LLC, priority 2006, published 2010)
Residues, ends and D or L forms follow the SMILES beside them. *: point of attachment. X1 = COc1ccc2c3c1OC1C(O*)=CCC4[C@@H](C2)N(C)CC[C@]314

Assays:
[1] = Intranasal bioavailability of hydrocodone conjugates; settings: rats, relative to hydrocodone
[2] = stability 90 C., 20 min (V, BP, TW, BS) of hydrocodone conjugates; settings: for stability 90 C., 20 min BP: BP (abbreviation not defined); for stability 90 C., 20 min BS: BS (abbreviation not defined); for stability 90 C., 20 min TW: TW (abbreviation not defined); for stability 90 C., 20 min V: V (abbreviation not defined)
[3] = Oral bioavailability of hydrocodone conjugates (plasma hydrocodone plus hydromorphone); settings: for bioavailabiltty (% HC) oral AUC / bioavailabiltty (% HC) oral Cmax: rats, relative to hydrocodone; for Oral:IN Index AUC: ratio of oral to IN AUC (% HC); for Oral:IN Index Cmax: ratio of oral to IN Cmax (% HC)

SMILES | bioavailabiltty (% HC) IN AUC [1] [% HC] | bioavailabiltty (% HC) IN Cmax [1] [% HC] | stability 90 C., 20 min BP [2] | stability 90 C., 20 min BS [2] | stability 90 C., 20 min TW [2] | stability 90 C., 20 min V [2] | bioavailabiltty (% HC) oral AUC [3] [% HC] | bioavailabiltty (% HC) oral Cmax [3] [% HC] | Oral:IN Index AUC [3] | Oral:IN Index Cmax [3]
COc1ccc2c3c1OC1C(OC(=O)[C@H](Cc4ccccc4)NC(=O)CNC(=O)CNC(=O)[C@H](CCC(=O)O)NC(=O)[C@@H](N)CCC(=O)O)=CCC4[C@@H](C2)N(C)CC[C@]314 (stereo partly drawn) [Glu2-Gly2-Phe-HC] (H-EEGGF-X1) | 89 | 97 | 100 | 100 | 100 | 0 | 110 | 112 | 1.24 | 1.15
CC[C@H](C)[C@H](NC(=O)[C@H](Cc1ccccc1)NC(=O)[C@H](Cc1ccccc1)NC(=O)[C@H](CCC(=O)O)NC(=O)[C@@H](N)CCC(=O)O)C(=O)OC1=CCC2[C@H]3Cc4ccc(OC)c5c4[C@@]2(CCN3C)C1O5 (stereo partly drawn) [Glu2-Phe2-Ile-HC] (H-EEFFI-X1) | 68 | 76 | 100 | 100 | 33 | 0 | 96 | 129 | 1.41 | 1.70
COc1ccc2c3c1OC1C(OC(=O)[C@H](Cc4ccccc4)NC(=O)[C@H](Cc4ccccc4)NC(=O)[C@H](Cc4ccccc4)NC(=O)[C@H](CCC(=O)O)NC(=O)[C@@H](N)CCC(=O)O)=CCC4[C@@H](C2)N(C)CC[C@]314 (stereo partly drawn) [Glu2-Phe3-HC, Glu2-Phe3-Hydrocodone] (H-EEFFF-X1) | 27 | 47 | 100 | 84 | 57 | 3 | 83 | 89 | 3.07 | 1.89
CC[C@H](C)[C@H](NC(=O)[C@H](CCC(=O)O)NC(=O)[C@@H](N)CCC(=O)O)C(=O)OC1=CCC2[C@H]3Cc4ccc(OC)c5c4[C@@]2(CCN3C)C1O5 (stereo partly drawn) [Glu-Glu-Ile-HC] | 52 | 59 | 94 | 100 | 26 | 0 | 83 | 112 | 1.60 | 1.90
CC[C@H](C)[C@H](NC(=O)[C@H](CCC(=O)O)NC(=O)[C@H](CCC(=O)O)NC(=O)CNC(=O)CN)C(=O)OC1=CCC2[C@H]3Cc4ccc(OC)c5c4[C@@]2(CCN3C)C1O5 (stereo partly drawn) [Gly2-Glu2-Ile-HC] (H-GGEEI-X1) | 66 | 77 | 74 | 100 | 11 | 0 | 96 | 119 | 1.45 | 1.55
CC[C@H](C)[C@H](NC(=O)[C@@H]1CCCN1C(=O)[C@@H]1CCCN1C(=O)CNC(=O)CN)C(=O)OC1=CCC2[C@H]3Cc4ccc(OC)c5c4[C@@]2(CCN3C)C1O5 (stereo partly drawn) [Gly2-Pro2-Ile-HC] (H-GGPPI-X1) | 44 | 56 | 73 | 100 | 70 | 0 | 94 | 121 | 2.14 | 2.16
